Assay results from PMC2729365 (Nature structural & molecular biology, 2009).

How the values were obtained:
AUC [1] = target: the molecule itself; test: AUC
AUC [2] = target: the molecule itself; test: AUC; remark: listed apart in the source

B1: GluR6 amino terminal domain (GluR6 R1R2 ATD, residues 1-389) expressed in wild type HEK293 cells (domain or fragment)
chain: TTHVLRFGGIFEYVESGPMGAEELAFRFAVNTINRNRTLLPNTTLTYDTQKINLYDSFEASKKACDQLSLGVAAIFGPSHSSSANAVQSICNALGVPHIQTRWKHQVSDNKDSFYVSLYPDFSSLSRAILDLVQFFKWKTVTVVYDDSTGLIRLQELIKAPSRYNLRLKIRQLPADTKDAKPLLKEMKRGKEFHVIFDCSHEMAAGILKQALAMGMMTEYYHYIFTTLDLFALDVEPYRYSGVNMTGFRILNTENTQVSSIIEKWSMERLQAPPKPDSGLLDGFMTTDAALMYDAVHVVSVAVQQFPQMTVSSLQCNRHKPWRFGTRFMSLIKEAHWEGLTGRITFNKTNGLRTDFDLDVISLKEEGLEKIGTWDPASGLNMTESQKGK
modifications: N-linked glycans at five sites, non uniform (complex) glycosylation
AUC [1]
  Kd: 11.3 µM
AUC [2]
  stoichiometry N: 2
